Columns and labels:
[1] = biological target: T1, His10/Avi Cyno IL-33 (cynomolgus monkey); test: HTRF epitope competition, scFv titrated; competitor DyLight labelled 33v20064 IgG
T1 construct: also called Cynomolgus 10His Avitag IL-33; biotinylated His Avi cynomolgus IL-33
T1 chain: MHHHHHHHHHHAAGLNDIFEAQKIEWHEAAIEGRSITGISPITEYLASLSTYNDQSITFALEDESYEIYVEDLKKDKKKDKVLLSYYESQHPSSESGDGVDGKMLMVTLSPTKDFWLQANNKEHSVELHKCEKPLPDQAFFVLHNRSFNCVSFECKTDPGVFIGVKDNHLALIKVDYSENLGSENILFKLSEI
Experimental: (§1) This was followed by the addition of 2.5 microlitres of a solution containing 0.8 nM biotinylated human IL-33-01 combined with 0.75 nM streptavidin cryptate detection (Cisbio International, 610SAKLB) for the human assay or a solution containing 4 nM biotinylated cynomolgus IL-33 combined with 1.5 nM streptavidin cryptate detection (Cisbio International, 610SAKLB) for the cynomolgus assay. All dilutions were performed in assay buffer containing 0.8 M potassium fluoride (VWR, 26820.236) and 0.1% bovine serum albumin (BSA, PAA, K05-013) in Dulbeccos PBS (Invitrogen, 14190185). Assay plates were incubated for 1 hour at room temperature and time resolved fluorescence was read at 620 nm and 665 nm emission wavelengths using an EnVision plate reader (Perkin Elmer). Data were analysed by calculating the 665/620 nm ratio followed by the % Delta F values for each sample. The 665/620 nm ratio was used to correct for sample interference using Equation 1. The % Delta F for each sample was then calculated using Equation 2. The negative control (non-specific binding) was defined by replacing biotinylated IL-33 combined with streptavidin cryptate detection with streptavidin cryptate detection only. The % Delta F values were subsequently used to calculate % specific binding as described in Equation 3.
(§2) Unique scFv were expressed again in bacteria and purified by affinity chromatography (as described in WO01/66754). Purified anti-IL-33 antibody samples were tested for potency of inhibition by competing a dilution series of the purified preparation against DyLight labelled 33v20064 IgG or DyLight labelled 33_640027 IgG for binding to biotinylated His Avi IL33-01, biotinylated His Avi IL33-11 or biotinylated His Avi cynomolgus IL-33. Methods are as described in the previous section.

[2] = biological target: T2, His10/Avi Human IL33-01 (human); test: as above
T2 construct: Wild type mature IL-33 with N-terminal 10xHis, Avitag and Factor Xa site; biotinylated by BirA on the Avitag where used biotinylated; reduced form unless treated; also called N-terminal His Avi IL-33; His-Avi human IL-33 wild type
T2 chain: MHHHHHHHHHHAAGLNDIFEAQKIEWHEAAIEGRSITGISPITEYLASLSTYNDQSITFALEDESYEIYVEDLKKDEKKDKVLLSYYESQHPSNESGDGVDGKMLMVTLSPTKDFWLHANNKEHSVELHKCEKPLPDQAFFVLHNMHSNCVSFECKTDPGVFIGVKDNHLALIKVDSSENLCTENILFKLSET
Experimental: as §1, §2

[3] = biological target: T3, His10/Avi Human IL33-11 (human); test: as above
T3 construct: C208S, C259S mutant (already in the entry), N-terminal His10/Avitag; also called His-Avi mutant IL-33; SCCS
T3 chain: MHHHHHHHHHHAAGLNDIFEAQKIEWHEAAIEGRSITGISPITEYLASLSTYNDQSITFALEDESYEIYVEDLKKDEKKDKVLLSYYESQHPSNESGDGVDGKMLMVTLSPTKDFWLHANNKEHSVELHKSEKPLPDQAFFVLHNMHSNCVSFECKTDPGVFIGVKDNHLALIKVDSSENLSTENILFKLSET
Experimental: as §1, §2

[4] = biological target: T1, His10/Avi Cyno IL-33; test: HTRF epitope competition, scFv titrated; competitor DyLight labelled 33_640027 IgG
[5] = biological target: T2, His10/Avi Human IL33-01; test: as above
[6] = biological target: T4, Endogenous human IL-33 (human, UniProt O95760 1-270, limits assumed); test: cell-based or functional assay
T4 sequence (looked up): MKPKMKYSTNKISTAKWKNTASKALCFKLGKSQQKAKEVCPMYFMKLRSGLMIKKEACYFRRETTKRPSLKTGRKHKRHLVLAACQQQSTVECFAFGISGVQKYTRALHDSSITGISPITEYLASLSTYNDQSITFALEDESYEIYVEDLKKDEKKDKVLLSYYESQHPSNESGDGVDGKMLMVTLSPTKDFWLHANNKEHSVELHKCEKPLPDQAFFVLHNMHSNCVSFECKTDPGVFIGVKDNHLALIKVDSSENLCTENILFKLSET

[7] = biological target: T5, Full-length human IL-33 (amino acids 1-270), HEK293-EBNA cell lysate (human, UniProt O95760 1-270); test: cell-based or functional assay
T5 sequence (looked up): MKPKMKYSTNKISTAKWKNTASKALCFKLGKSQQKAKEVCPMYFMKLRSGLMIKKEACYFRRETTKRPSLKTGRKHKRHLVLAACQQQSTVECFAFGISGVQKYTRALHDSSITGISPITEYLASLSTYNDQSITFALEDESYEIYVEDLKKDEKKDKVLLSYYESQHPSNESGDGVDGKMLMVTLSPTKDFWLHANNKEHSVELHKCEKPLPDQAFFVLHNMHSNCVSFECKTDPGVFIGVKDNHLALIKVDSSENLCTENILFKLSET

[8] = biological target: T6, Human IL-33 (Axxora/Alexis ALX-522-098) (human, UniProt O95760 112-270); test: cell-based or functional assay
T6 sequence (looked up): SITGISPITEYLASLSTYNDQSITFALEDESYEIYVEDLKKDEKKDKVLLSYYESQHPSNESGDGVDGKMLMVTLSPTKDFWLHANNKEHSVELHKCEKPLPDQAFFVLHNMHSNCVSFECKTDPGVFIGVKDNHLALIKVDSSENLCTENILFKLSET

[9] = biological target: T7, Human IL-33 (Axxora/Adipogen AG-40B-0038) (human, UniProt O95760 112-270, limits assumed); test: cell-based or functional assay
T7 sequence (looked up): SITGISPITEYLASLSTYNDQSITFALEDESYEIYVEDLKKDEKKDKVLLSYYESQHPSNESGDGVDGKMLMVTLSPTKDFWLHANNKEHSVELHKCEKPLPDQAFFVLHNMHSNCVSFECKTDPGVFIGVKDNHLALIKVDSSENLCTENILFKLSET

[10] = biological target: T8, Cynomolgus IL-33 Flag®His (cynomolgus monkey); test: ELISA, biotinylated antigen on streptavidin plate, anti-human IgG HRP
T8 construct: C-terminal FLAG 10xHis tag, E. coli; also called Mature Cynomolugus IL-33; cyno IL-33 FH
T8 chain: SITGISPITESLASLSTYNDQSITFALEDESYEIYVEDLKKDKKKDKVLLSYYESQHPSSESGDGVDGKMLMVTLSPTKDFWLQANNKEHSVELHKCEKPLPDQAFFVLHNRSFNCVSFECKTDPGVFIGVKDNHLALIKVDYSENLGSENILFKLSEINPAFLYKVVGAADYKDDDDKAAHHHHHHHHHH
Experimental: (§3) 96-well Greiner polypropylene plates (Greiner, 650201) were used for dilution preparation. Generally, each dilution was prepared in duplicate. IgG dilutions were allowed to block in PBS-M for 1 hour at room temperature before being used directly in ELISA experiments.
(§4) Streptavidin plates (Thermo Scientific, AB-1226) were coated with biotinylated antigen at 0.5 μg/ml in PBS and incubated overnight at 4° C. Plates were washed 3× with PBS and blocked with 300 μl/well blocking buffer (PBS-M) for 1 hour. Plates were washed 1× with PBS and blocked samples added, 50 μl/well for 1 hour at room temperature. […] Plates were washed 3× with PBS-T and developed with TMB, 50 μl/well (Sigma, T0440). The reaction was quenched with 50 μl/well 0.1M H2504 before reading on an EnVision™ plate reader, or similar equipment, at 450 nm.
(§5) Species cross-reactivity of anti-IL-33 antibodies was determined using a plate-based ELISA. Streptavidin plates (Thermo Scientific, AB-1226) were coated with biotinylated antigen at 0.5 μg/ml in PBS. Binding of purified IgG preparations was detected with anti-human IgG HRP (Sigma, A0170).

[11] = biological target: T9, Mouse IL-33 Flag®His (mouse); test: as above
T9 construct: C-terminal FLAG 10xHis tag, E. coli; also called Mature Mouse IL-33_FH; mouse IL-33 FH
T9 chain: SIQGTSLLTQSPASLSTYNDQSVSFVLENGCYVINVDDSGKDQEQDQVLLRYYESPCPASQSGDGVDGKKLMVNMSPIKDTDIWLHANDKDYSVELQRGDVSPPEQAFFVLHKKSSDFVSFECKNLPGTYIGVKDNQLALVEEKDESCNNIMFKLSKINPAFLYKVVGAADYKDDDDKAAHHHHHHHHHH
Experimental: as §3, §4, §5

[12] = biological target: T10, Human IL-33 Flag®His (human); test: as above
T10 construct: Mature IL-33 with C-terminal FLAG 10xHis tag, from E. coli; biotinylated via free cysteines where used biotinylated; also called Mature Human IL-33_FH; human IL-33 FH
T10 chain: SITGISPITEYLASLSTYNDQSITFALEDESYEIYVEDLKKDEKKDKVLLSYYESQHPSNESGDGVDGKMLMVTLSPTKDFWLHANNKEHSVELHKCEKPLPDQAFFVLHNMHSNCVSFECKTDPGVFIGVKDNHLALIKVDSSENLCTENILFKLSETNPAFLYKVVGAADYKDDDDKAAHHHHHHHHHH
Experimental: as §3, §4, §5

[13] = biological target: T2, His10/Avi Human IL33-01; test: HTRF epitope competition, IgG titrated; competitor DyLight labelled 33_640117 IgG; overnight
Experimental: (§6) As the epitope competition assay utilising 33_640027 reached its limit of sensitivity, an assay using 33_640117 was used for testing purified scFv samples. The assay was essentially as described for the 33v20064 competition assay with the following modifications: 2.5 nM DyLight labelled 33_640117 was prepared and 2.5 microlitres added to the assay plates. This was followed by the addition of 2.5 microlitres of a solution containing 0.12 nM biotinylated human IL-33-01 combined with 0.75 nM streptavidin cryptate detection (Cisbio International, 610SAKLB) for the human assay or a solution containing 0.24 nM biotinylated cynomolgus IL-33 combined with 1.5 nM streptavidin cryptate detection (Cisbio International, 610SAKLB) for the cynomolgus assay. Fluorescence was read after one hour and overnight incubation.
(§7) The ability of anti-IL-33 antibodies to inhibit the binding of biotinylated His Avi human IL-33 or cynomolgus His Avi IL-33 to the DyLight labelled 33_640117 IgG was assessed in a biochemical HTRF® (Homogeneous Time-Resolved Fluorescence, Cisbio International) competition assays as described above.

[14] = biological target: T1, His10/Avi Cyno IL-33; test: HTRF epitope competition, IgG titrated; competitor DyLight labelled 33_640117 IgG; 1 hour
Experimental: as §6, §7

[15] = biological target: T2, His10/Avi Human IL33-01; test: as above
Experimental: as §6, §7

B1: 33_640047 scFv (scFv, V domains shown)
VH: EVQLLESGGGLVQPGGSLRLSCAASGFTFSSYAMSWVRQAPGKGLEWVSAISGSGGSTYYADSVKGRFTISRDNSKNTLYLQMNSLRAEDTAVYYCTRLKFMQLWGGGLRYPFGYWGQGTMVTVSS
VL: SYVLTQPPSVSVSPGQTASITCSGERMGDKYAAWYQQKPGQSPVLVIYQDTKRPSGIPERFSGSNSGNTATLTISGTQAMDEADYYCQVWDSSTGVFGGGTKVTVL
notes: Single chain Fv; also called ZZ1F7P-E01
An IC50 [1] of 2.7 nM, an IC50 [2] of 0.4 nM and an IC50 [3] of 0.5 nM were found for B1 in this work. It also gave an IC50 [4] of 8.8 nM and an IC50 [5] of 2.3 nM.

B2: Human ST2-Fc (R&D Systems, or source not stated in the example) (Fc fusion, UniProt Q01638 19-328, looked up, not shown: a dimerising Fc or GST)
chain: KFSKQSWGLENEALIVRCPRQGKPSYTVDWYYSQTNKSIPTQERNRVFASGQLLKFLPAAVADSGIYTCIVRSPTFNRTGYANVTIYKKQSDCNVPDYLMYSTVSGSEKNSKIYCPTIDLYNWTAPLEWFKNCQALQGSRYRAHKSFLVIDNVMTEDAGDYTCKFIHNENGANYSVTATRSFTVKDEQGFSLFPVIGAPAQNEIKEVEIGKNANLTCSACFGKGTQFLAAVLWQLNGTKITDFGEPRIQQEEGQNQSFSNGLACLDMVLRIADVKEEDLLLQYDCLALNLHGLRRHTVRLSRKNPIDHHS
With B2 the “IC50, Huvec IL-8 release stimulated by human lung lysate” value [6] was 0.019 nM and the “IC50, Huvec IL-8 assay vs. full length IL-33 cell lysate” value [7] was 0.67 nM.

B3: IL330107 IgG (antibody, V domains shown)
VH: QMQLVQSGGGVVQPGGSLRLSCAASGFTFSSYAMSWVRQAPGKGLEWVSAISGSGGSTYYADSVKGRFTISRDNSKNTLYLQMNSLRAEDTAVYYCAKPFPSYWYFDLWGKGTLVTVSS
VL: SYVLTQPPSVSVSPGQTARITCSGDALPKQYAYWYQQKPGQAPVLVIYKDSERPSGIPERFSGSSSGTTVTLTISGVQAEDEADYYCQSADSSGTYRVFGGGTQLTVL
notes: IgG1 or IgG1-TM
In the case of B3, the “IC50, TF-1 proliferation” value [8] is reported as 94 nM, the “IC50 (geomean), Mast cell IL-6 production” value [9] is reported as 283 nM and the EC50 [10] is reported as 1.09 nM. It also gave an EC50 [11] of 0.83 nM and an EC50 [12] of 0.86 nM.

B4: 33v20064 IgG1 (antibody, V domains shown)
VH: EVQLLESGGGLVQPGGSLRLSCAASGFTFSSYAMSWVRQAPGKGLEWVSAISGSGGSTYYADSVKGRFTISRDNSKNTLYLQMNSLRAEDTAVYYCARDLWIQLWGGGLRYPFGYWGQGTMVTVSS
VL: LPVLTQPPSVSVSPGQKASITCSGERMGDKYAAWYQQKPGQSPILVIYQDTKRPSGIPERFSGSNSGNTATLTISGTQDMDEADYYCQVWDSSTGVFGGGTKVTVL
notes: IgG1; also called ZZ1EBX-E05
An IC50 [13] of 689 nM, an IC50 [14] of 788 nM and an IC50 [15] of 150 nM were found for B4 in this work. The “IC50, Huvec IL-8 assay vs. full length IL-33 cell lysate” value [7] was 185 nM.
